From US7884199B2, “HCV NS3-NS4 protease resistance mutants” (priority 2003, dated 2011)
“And” between values parts separate entries of the source, which are not always exact repeats. Identical values can stand only once.

Legend:
[1] = tested on: wild-type HCV Con1 sub-genomic replicon cells; experiment: HCV replicon cell assay, 48-hour; assay type: cell-based, Hepatitis C virus; details: 48-hour assay
Experimental: (§1) Cells containing hepatitis C virus (HCV) replicon were maintained in DMEM containing 10% fetal bovine serum (FBS), 0.25 mg per ml of G418, with appropriate supplements (media A).
(§2) On day 1, replicon cell monolayer was treated with a trypsin:EDTA mixture, removed, and then media A was diluted into a final concentration of 100,000 cells per ml with. 10,000 cells in 100 ul were plated into each well of a 96-well tissue culture plate, and cultured overnight in a tissue culture incubator at 37° C.
On day 2, compounds (in 100% DMSO) were serially diluted into DMEM containing 2% FBS, 0.5% DMSO, with appropriate supplements (media B). […]
(§3) A Taqman real-time RT-PCR quantification assay was set up with two sets of specific primers and probe. […] Total RNA extractants from treated HCV replicon cells was added to the PCR reactions for quantification of both HCV and BVDV RNA in the same PCR well. […] The level of HCV RNA in each well was calculated according to a standard curve run in the same PCR plate. The percentage of inhibition or decrease of HCV RNA level due to compound treatment was calculated using the DMSO or no compound control as 0% of inhibition. The cytotoxicity of the compounds was measured using a mitochondrial enzyme-based cell viability assay, CellTiter 96 AQueous One Solution Cell Proliferation Assay (Promega).

[2] = tested on: wild type HCV replicon cells (high efficiency Con1 replicon); experiment: HCV replicon cell assay, 48-hour; assay type: cell-based, Hepatitis C virus; details: read-out: IC50
Excerpt: (§4) During the course of generating of the HCV sub-genomic replicon stable cell lines, several different patterns of adaptive mutations were identified. One pattern has three substitutions in the HCV nonstructural proteins, which were introduced into the original pBR322-HCV-Neo plasmid by site-directed mutagenesis to generate the second-generation sub-genomic replicon plasmid, pBR322-HCV-Neo-mADE. When the T7 run-offRNA transcripts from the Sca I-linearized pBR322-HCV-Neo-mADE plasmid were electroporated into Huh7 cells, stable replicon cell colonies were formed at a much higher efficiency than the original Con1 replicon RNA. The resistance mutations identified in this study were introduced into the pBR322-HCV-Neo-mADE replicon plasmid by site-directed mutagenesis. Stable replicon cell lines were generated using the T7 transcripts derived from either wild type pBR322-HCV-Neo-mADE or the ones with the resistance mutations.
as §1
On day 1, replicon cell monolayer was treated with a trypsin:EDTA mixture, removed, and then media A was diluted into a final concentration of 100,000 cells per ml with. […]
as §3, with “(Promega). […]” for “(Promega).”

A156S HCV replicon cells = experiment: HCV replicon cell assay, 48-hour; assay type: cell-based, Hepatitis C virus; details: read-out: IC50
Excerpt: as §4, §1, §2
(§5) On day 2, compounds (in 100% DMSO) were serially diluted into DMEM containing 2% FBS, 0.5% DMSO, with appropriate supplements (media B). The final concentration of DMSO was maintained at 0.5% throughout the dilution series.
(§6) Media on the replicon cell monolayer was removed, and then media B containing various concentrations of compounds was added. Media B without any compound was added to other wells as no compound controls.
(§7) Cells were incubated with compound or 0.5% DMSO in media B for 48 hours in a tissue culture incubator at 37° C. At the end of the 48-hour incubation, the media was removed, and the replicon cell monolayer was washed once with PBS and stored at −80° C. prior to RNA extraction.
(§8) Culture plates with treated replicon cell monolayers were thawed, and a fixed amount of another RNA virus, such as Bovine Viral Diarrhea Virus (BVDV) was added to cells in each well. RNA extraction reagents (such as reagents from RNeasy kits) were added to the cells immediately to avoid degradation of RNA. Total RNA was extracted according the instruction of manufacturer with modification to improve extraction efficiency and consistency. Finally, total cellular RNA, including HCV replicon RNA, was eluted and stored at −80° C. until further processing.
(§9) A Taqman real-time RT-PCR quantification assay was set up with two sets of specific primers and probe. One was for HCV and the other was for BVDV. Total RNA extractants from treated HCV replicon cells was added to the PCR reactions for quantification of both HCV and BVDV RNA in the same PCR well. Experimental failure was flagged and rejected based on the level of BVDV RNA in each well. The level of HCV RNA in each well was calculated according to a standard curve run in the same PCR plate. The percentage of inhibition or decrease of HCV RNA level due to compound treatment was calculated using the DMSO or no compound control as 0% of inhibition. The cytotoxicity of the compounds was measured using a mitochondrial enzyme-based cell viability assay, CellTiter 96 AQueous One Solution Cell Proliferation Assay (Promega).
(§10) Four HCV sub-genomic replicon stable cell lines, including the wild type (wt), and three mutants, A156S, D168V and D168A, were generated using the T7 RNA runoff transcripts from the corresponding high efficiency Con1 replicon plasmids.

D168A HCV replicon cells = experiment: HCV replicon cell assay, 48-hour; assay type: cell-based, Hepatitis C virus; details: 48-hour assay
Excerpt: as §4, §1, §2, §5, §6, §7, §8, §9, §10

D168V HCV replicon cells = experiment: HCV replicon cell assay, 48-hour; assay type: cell-based, Hepatitis C virus; details: D168V replicon cells, 48-hour assay; read-out: Replicon IC50
Excerpt: as §4, §1, §2, §5, §6, §7, §8, §9, §10

A156T HCV replicon cells = experiment: HCV replicon cell assay, 48-hour; assay type: cell-based, Hepatitis C virus; details: 48-hour assay
Excerpt: as §4, §1, §2, §5, §6, §7, §8, §9
(§11) Table 6 summary: Three HCV sub-genomic replicon stable cell lines, including the wild-type, and two mutants, A156T and A156V, were generated using the T7 RNA runoff transcripts from the corresponding high efficiency Con 1 replicon plasmids.

A156V HCV replicon cells = experiment: HCV replicon cell assay, 48-hour; assay type: cell-based, Hepatitis C virus
Excerpt: as §4, §1, §2, §5, §6, §7, §8, §9, §11

[3] = tested on: series A (VX-950-resistant) replicon cells; experiment: HCV replicon cell assay, 48-hour; assay type: cell-based, Hepatitis C virus; details: series A (VX-950-resistant) replicon cells
[4] = tested on: series C (double-resistant) replicon cells; experiment: HCV replicon cell assay, 48-hour; assay type: cell-based, Hepatitis C virus; details: series C replicon cells at day 52
Experimental: Culture plates with treated replicon cell monolayers were thawed, and a fixed amount of another RNA virus, such as Bovine Viral Diarrhea Virus (BVDV) was added to cells in each well. […]
A Taqman real-time RT-PCR quantification assay was set up with two sets of specific primers and probe. […] Total RNA extractants from treated HCV replicon cells was added to the PCR reactions for quantification of both HCV and BVDV RNA in the same PCR well. […] The level of HCV RNA in each well was calculated according to a standard curve run in the same PCR plate. The percentage of inhibition or decrease of HCV RNA level due to compound treatment was calculated using the DMSO or no compound control as 0% of inhibition. The cytotoxicity of the compounds was measured using a mitochondrial enzyme-based cell viability assay, CellTiter 96 AQueous One Solution Cell Proliferation Assay (Promega). […]

[5] = Substrate kinetic parameters of NS3 serine protease domains with KK-NS4A peptide and FRET substrate; assay type: biochemical, Hepatitis C virus
Experimental: Enzymatic activity was determined using a modification of the assay described by Taliani et al., [Taliani et al., Anal. Biochem., 240, pp. 60-67 (1996)]. An internally quenched fluorogenic peptide (FRET substrate), Ac-DED(EDANS)EEαAbuψ[COO]ASK (DABCYL)-NH2, was purchased from AnaSpec Incorporated (San Jose, Calif.). The assay was run in a continuous mode in a 96-well microtiter plate format. The buffer was composed of 50 mM HEPES (pH 7.8), 100 mM NaCl, 20% glycerol, 5 mM DTT, and 25 μM KK4A peptide ([…]; SEQ ID NO:5). The KK4A peptide represents the central region of the NS4A cofactor from genotype 1a with lysine residues added for improved solubility [Landro et al. Biochemistry, 36, pp. 9340-9348 (1997)]. The reaction was initiated by the addition of the FRET substrate after a 10-min pre-incubation of the buffer components with 2 nM of the NS3 protease at room temperature. The reaction was monitored at 30° C. for 20 min using a Molecular Devices fmax fluorometric plate reader. The filters for excitation and emission wavelengths were 355 nm and 495 nm, respectively. For determination of substrate kinetic parameters, concentrations of the FRET peptide were varied from 0.5-7.0 μM. Inter-molecular quenching was not observed in this range. The substrate kinetic parameters, Km and Vmax, were determined by fitting the data to the Michaelis-Menten equation. […] This mixture was incubated for an additional 15 min at room temperature prior to an incubation with the FRET substrate for another 20 min at 30° C. Seven to eight concentrations of compound were assayed, and the resulting data were fitted to the integrated form of Morrison's equation for tight binding inhibition [J. F. Morrison, Biochim. Biophys. Acta, 185 pp. 269-286 (1969)]. All substrate and inhibitor data were fitted using Marquardt-Levenberg nonlinear regression with GraphPad Prism software.
Five HCV NS3 serine protease domain proteins, including the genotype 1a and 1b wild-type (wt) proteases, and three mutants (A156S, D168V, and D168A) of the genotype 1b, were expressed and purified as described in Materials and Methods. The kcat and Km values of these NS3 proteases were determined using the KK-NS4A core peptide and the FRET substrate.
Table 4 summary: Three HCV NS3 serine protease domain proteins of the Con1 strain, including the wild-type proteases and two mutants, A156T and A156V, were expressed and purified. The kcat and Km values of these NS3 proteases were determined using the KK-NS4A core peptide and the FRET substrate, and the average of two independent assays was shown.

[6] = Table 1, FRET substrate, KK-NS4A core peptide
[7] = Table 4, Con1 strain, average of two independent assays

| Molecule | Kcat [5, 6] | Km [5, 6] | Kcat [5, 7] | Km [5, 7] | also measured |
| --- | --- | --- | --- | --- | --- |
| BILN 2061 [reference compound] | – | – | – | – | IC50 [1]: 1 nM; IC50 [2]: 4 nM; IC50 (A156S HCV replicon cells): 7 nM; IC50 (D168A HCV replicon cells): 1860 nM; IC50 (D168V HCV replicon cells): 5090 nM and 4650 nM; IC50 (A156T HCV replicon cells): 1090 nM; decrease in sensitivity conferred by the mutation (A156V HCV replicon cells): more than 1.400 fold; IC50 (A156V HCV replicon cells; 48-hour assay): 5760 nM; IC50 [3]: ~10 nM; IC50 [4]: ~3000 nM; IC50 higher than against the series A replicon cells [4]: 300 fold |
| D168A (1b) (protein) APITAYSQQTRGLLGCIITSLTGRDRNQVEGEVQVVSTATQSFLATCVNGVCWTVYHGAGSKTLAGPKGPITQMYTNVDQDLVGWQAPPGARSLTPCTCGSSDLYLVTRHADVIPVRRRGDSRGSLLSPRPVSYLKGSSGGPLLCPSGHAVGIFRAAVCTRGVAKAVAFVPVESMETTMRSHHHHHH | 0.3 s⁻¹ | 2 µM | – | – | change of substrate kinetic parameters (kcat, kcat/Km) compared with wild type ([5]; FRET substrate): less than 10 fold |
| A156S (1b) (protein) APITAYSQQTRGLLGCIITSLTGRDRNQVEGEVQVVSTATQSFLATCVNGVCWTVYHGAGSKTLAGPKGPITQMYTNVDQDLVGWQAPPGARSLTPCTCGSSDLYLVTRHADVIPVRRRGDSRGSLLSPRPVSYLKGSSGGPLLCPSGHAVGIFRSAVCTRGVAKAVDFVPVESMETTMRSHHHHHH | 0.6 s⁻¹ | 0.9 µM | – | – | – |
| A156V (protein) APITAYSQQTRGLLGCIITSLTGRDRNQVEGEVQVVSTATQSFLATCVNGVCWTVYHGAGSKTLAGPKGPITQMYTNVDQDLVGWQAPPGARSLTPCTCGSSDLYLVTRHADVIPVRRRGDSRGSLLSPRPVSYLKGSSGGPLLCPSGHAVGIFRVAVCTRGVAKAVDFVPVESMETTMRSHHHHHH | – | – | 0.6 s − 1 | 2.6 µM | – |
| D168V (1b) (protein) APITAYSQQTRGLLGCIITSLTGRDRNQVEGEVQVVSTATQSFLATCVNGVCWTVYHGAGSKTLAGPKGPITQMYTNVDQDLVGWQAPPGARSLTPCTCGSSDLYLVTRHADVIPVRRRGDSRGSLLSPRPVSYLKGSSGGPLLCPSGHAVGIFRAAVCTRGVAKAVVFVPVESMETTMRSHHHHHH | 0.6 s⁻¹ | 1.2 µM | – | – | – |
| Wt (1b): wild-type HCV NS3 serine protease domain, genotype 1b (Con1 strain) (protein) APITAYSQQTRGLLGCIITSLTGRDRNQVEGEVQVVSTATQSFLATCVNGVCWTVYHGAGSKTLAGPKGPITQMYTNVDQDLVGWQAPPGARSLTPCTCGSSDLYLVTRHADVIPVRRRGDSRGSLLSPRPVSYLKGSSGGPLLCPSGHAVGIFRAAVCTRGVAKAVDFVPVESMETTMRSHHHHHH | 1.0 s⁻¹ | 1.1 µM | 1.0 s − 1 | 1.1 µM | – |
| A156T (protein) APITAYSQQTRGLLGCIITSLTGRDRNQVEGEVQVVSTATQSFLATCVNGVCWTVYHGAGSKTLAGPKGPITQMYTNVDQDLVGWQAPPGARSLTPCTCGSSDLYLVTRHADVIPVRRRGDSRGSLLSPRPVSYLKGSSGGPLLCPSGHAVGIFRTAVCTRGVAKAVDFVPVESMETTMRSHHHHHH | – | – | 0.2 s − 1 | 1.3 µM | – |
